# Test results reported in the supplement of paper PMC7125110.
# ± gives the standard error. For some of these results: Variants at the floor of the assay were thinned out.
# B1: glmS ribozyme (parent)
# chain: AUAAAAGCGCCAGAACUACAGAAAUGUAGUUGACGAGGAGGAGGUUUAUCGAAUUUUCGGCGGAUGCCUCCAAA
# How the values were obtained:
# Details in all cases: with glucosamine-6-phosphate
# [1] = variants of: B1; experiment: self-cleavage kobs at 40 uM GlcN6P; higher = faster cleavage; RNA array
# Summary of the method: (§1)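 Barcoded ribozyme variants, transcribed in situ by E. coli RNA polymerase on sequenced MiSeq chips, were followed via a hybridised Cy3 probe at 37 °C. Glucosamine-6-phosphate ranged from 40 μM to 10 mM in HEPES/KCl/Mg(OAc)2 buffer. kobs came from decay fits to per-tile medians, and kcat and KM from weighted Michaelis–Menten fits.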
# [2] = variants of: B1; experiment: self-cleavage kobs at 640 uM GlcN6P; higher = faster cleavage; RNA array
# Summary of the method: as §1
# [3] = variants of: B1; experiment: self-cleavage kobs at 2500 uM GlcN6P; higher = faster cleavage; RNA array
# Summary of the method: as §1
# [4] = variants of: B1; experiment: self-cleavage kobs at 160 uM GlcN6P; higher = faster cleavage; RNA array
# Summary of the method: as §1
# [5] = variants of: B1; experiment: self-cleavage kobs at 10000 uM GlcN6P; higher = faster cleavage; RNA array
# Summary of the method: as §1
# [6] = variants of: B1; experiment: KM; higher = weaker cofactor use; RNA array
# Summary of the method: as §1
# [7] = variants of: B1; experiment: kcat; higher = faster cleavage; RNA array
# Summary of the method: as §1
Variant,self-cleavage kobs at 40 uM GlcN6P [1] [s⁻¹],self-cleavage kobs at 640 uM GlcN6P [2] [s⁻¹],self-cleavage kobs at 2500 uM GlcN6P [3] [s⁻¹],self-cleavage kobs at 160 uM GlcN6P [4] [s⁻¹],self-cleavage kobs at 10000 uM GlcN6P [5] [s⁻¹],KM [6] [µM],kcat [7] [s⁻¹]
G35C U49A,< 1e-05,< 1e-05,< 1e-05,,,,
A36U A52G C70A,5.42e-05 ± 1.4e-05,0.000171 ± 6.6e-05,,,,,
G7U A33U A52G,< 1e-05,,,,,,
A42U U69A,0.00293 ± 0.00038,0.0164 ± 0.0051,0.0275 ± 0.012,0.00511 ± 0.0011,0.101 ± 0.036,,
G13U C16G U31G C34U,< 1e-05,,,,,,
G40A C61U,< 1e-05,< 1e-05,,< 1e-05,,,
C11U C50U,,,,,,98.2 ± 43,
G51A C61A,< 1e-05,,,,,,1.66e-05 ± 3.1e-06
A42G C50U G63U C71G,< 1e-05,,,,< 1e-05,,
A42G G66A U69A,0.000356 ± 0.0001,,,,0.0125 ± 0.0052,1590 ± 490,0.0145 ± 0.0037
G29C C70U,8.66e-05 ± 9.8e-06,0.000243 ± 2.2e-05,0.00103 ± 0.00018,0.000143 ± 1.8e-05,0.000815 ± 0.00013,,
G37C U65G U69G,< 1e-05,,,,< 1e-05,,
G59A G60C,,,,,,30.9 ± 14,
G29A G37U,,,,,,,< 1e-05
A39U U46C,0.000154 ± 1.5e-05,0.00284 ± 0.00046,0.00541 ± 0.0019,0.000743 ± 0.00014,0.00883 ± 0.0013,2780 ± 640,0.0117 ± 0.0022
U54G C70U,0.00112 ± 0.00013,0.00544 ± 0.001,,0.000836 ± 0.00011,,,
C10A G40U U54C,< 1e-05,,,,< 1e-05,,
G37A G40A,,0.000135 ± 3.7e-05,0.000366 ± 7.6e-05,3.73e-05 ± 1.3e-05,0.000583 ± 9.3e-05,2830 ± 820,0.000755 ± 0.00012
U46C G60A,< 1e-05,< 1e-05,,< 1e-05,,,
A42G A53G,0.00144 ± 0.00031,0.00893 ± 0.0025,0.0414 ± 0.018,0.00422 ± 0.0013,0.00932 ± 0.0024,248 ± 95,
G40U A42U,,4.15e-05 ± 9.6e-06,0.000109 ± 1.3e-05,2.53e-05 ± 1.2e-05,9.45e-05 ± 1.4e-05,,0.000115 ± 2e-05

Variant,self-cleavage kobs at 40 uM GlcN6P [1] [s⁻¹],self-cleavage kobs at 640 uM GlcN6P [2] [s⁻¹],self-cleavage kobs at 2500 uM GlcN6P [3] [s⁻¹],self-cleavage kobs at 160 uM GlcN6P [4] [s⁻¹],self-cleavage kobs at 10000 uM GlcN6P [5] [s⁻¹],KM [6] [µM],kcat [7] [s⁻¹]
U46A C58U,< 1e-05,< 1e-05,,< 1e-05,,,
A48U G59A,< 1e-05,< 1e-05,< 1e-05,< 1e-05,< 1e-05,,
G13A C61G,,,,,,127 ± 17,
A12C A36C U54G,< 1e-05,,,,,,
C34U G59U,< 1e-05,< 1e-05,< 1e-05,< 1e-05,< 1e-05,,
G35C G63U C71A,< 1e-05,,< 1e-05,,< 1e-05,,
G7U C10A A12U A36G C50G,0.000144 ± 2.8e-05,0.0003 ± 0.0001,,,0.000157 ± 3.1e-05,,
A48C C50A,< 1e-05,< 1e-05,,< 1e-05,< 1e-05,,
A15C G29U,6.18e-05 ± 8.8e-06,0.000757 ± 0.00012,0.00169 ± 0.00042,,0.00285 ± 0.00042,2200 ± 140,0.00341 ± 0.00015
A12U A14G A64U G66U,< 1e-05,,,,,,
A39C G62U,< 1e-05,,< 1e-05,,< 1e-05,,
A42C U56G,,,,,,4130 ± 120,
G32C A52C,< 1e-05,< 1e-05,< 1e-05,< 1e-05,,,
A12U G41C C58A,< 1e-05,,< 1e-05,,< 1e-05,,
A33U C61U C70U,< 1e-05,,< 1e-05,,,,
A6U C16U U47A G63U,< 1e-05,,,,< 1e-05,,
G29A C50G A53U G66U,5.27e-05 ± 2.6e-05,,,,,,
U46C C50G,< 1e-05,< 1e-05,,,,,
U46C U49G,,4.66e-05 ± 1.2e-05,8.96e-05 ± 1.6e-05,,9.78e-05 ± 1.5e-05,817 ± 220,0.000109 ± 8.3e-06
A48U C58U,< 1e-05,< 1e-05,< 1e-05,< 1e-05,< 1e-05,,
A36U G44A,< 1e-05,< 1e-05,< 1e-05,< 1e-05,< 1e-05,,
